Results taken from article PMC11607802.

Target: Butelase AY (Butelase 1 V237A/T238Y), zymogenic form before activation (Clitoria ternatea)
Experiment: SEC

- stoichiometry N: 2
Substance: Butelase AY (Butelase 1 V237A/T238Y), zymogenic form before activation (enzyme)
